Assays:
[1] = target: T1, human transferrin receptor (hTfR) (human, UniProt P02786 1-760); assay: synthetic peptide added to CEF+hTfR cells before … phage; titer of bound phage
T1 construct: whole, on cells; Always presented on CEF+hTfR cells; also called CEF+hTfR cells
Description: (§1) Binding and Competition Studies: Purified phage populations were amplified and were verified to be homogenous through DNA sequencing. Cells were prepared for binding as was described for biopanning procedures. Preparations of plaque-purified and titered phage (1×10¹¹) were incubated in serum-free Opti-MEM on either CEF or CEF+hTfR cells at 4° C. for 1 hour. The cells were washed repeatedly with Opti-MEM and bound phage were eluted with low pH buffer and subsequently titered. […] Multiple trials were completed and average titers and standard deviations determined. The titers determined on CEF+hTfR cells were divided by the titers determined on CEF cells and […] fold over control data points.

[2] = target: T1, human transferrin receptor (hTfR); assay: synthetic peptide added to CEF+hTfR cells before HAIYPRH phage; titer of bound phage
Description: as §1

T1 sequence (P02786 whole entry): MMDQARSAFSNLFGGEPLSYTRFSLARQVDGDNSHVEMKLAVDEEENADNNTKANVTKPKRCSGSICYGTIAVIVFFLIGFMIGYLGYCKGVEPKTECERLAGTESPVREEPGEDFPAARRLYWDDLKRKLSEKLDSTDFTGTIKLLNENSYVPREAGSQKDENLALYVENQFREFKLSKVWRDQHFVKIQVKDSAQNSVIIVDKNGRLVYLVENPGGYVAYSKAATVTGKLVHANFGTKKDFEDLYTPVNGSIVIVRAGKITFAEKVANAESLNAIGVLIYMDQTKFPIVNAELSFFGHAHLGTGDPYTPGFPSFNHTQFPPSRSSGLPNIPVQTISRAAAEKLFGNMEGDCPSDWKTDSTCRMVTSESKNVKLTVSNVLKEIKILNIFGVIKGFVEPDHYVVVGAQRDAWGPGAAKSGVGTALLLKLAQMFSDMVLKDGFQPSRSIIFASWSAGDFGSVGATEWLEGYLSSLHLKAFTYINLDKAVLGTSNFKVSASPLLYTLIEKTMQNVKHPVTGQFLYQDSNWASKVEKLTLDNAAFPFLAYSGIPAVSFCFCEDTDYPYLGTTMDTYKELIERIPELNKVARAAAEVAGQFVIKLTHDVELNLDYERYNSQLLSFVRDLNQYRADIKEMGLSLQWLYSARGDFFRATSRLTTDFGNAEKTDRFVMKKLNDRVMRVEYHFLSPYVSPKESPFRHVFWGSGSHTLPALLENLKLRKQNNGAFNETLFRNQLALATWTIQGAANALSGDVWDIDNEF

Binder | binding result [1] | binding result [2]
THRPPMWSPVWP (Synthetic peptide, HPLC purified; also called 12-mer) [THRPPMWSPVWP (Seq. ID No. 2) peptide] | binds | 
HAIYPRH (Synthetic peptide, HPLC purified; also called 7-mer) [HAIYPRH (Seq. ID No. 1) peptide] |  | binds

— patent publication US20080166293A1 (UAB RESEARCH FOUNDATION, published 2008)
